Measured values published in patent WO2015129919A1 (dated 2015).
Numbering of substitutions follows the chain as printed.

T1: SLC6A6 (solute carrier family 6 (neurotransmitter transporter, taurine), member 6), human, native on the cell … (human, UniProt P31641 1-620)
T1 construct: also called native SLC6A6; taurine transporter
T1 sequence: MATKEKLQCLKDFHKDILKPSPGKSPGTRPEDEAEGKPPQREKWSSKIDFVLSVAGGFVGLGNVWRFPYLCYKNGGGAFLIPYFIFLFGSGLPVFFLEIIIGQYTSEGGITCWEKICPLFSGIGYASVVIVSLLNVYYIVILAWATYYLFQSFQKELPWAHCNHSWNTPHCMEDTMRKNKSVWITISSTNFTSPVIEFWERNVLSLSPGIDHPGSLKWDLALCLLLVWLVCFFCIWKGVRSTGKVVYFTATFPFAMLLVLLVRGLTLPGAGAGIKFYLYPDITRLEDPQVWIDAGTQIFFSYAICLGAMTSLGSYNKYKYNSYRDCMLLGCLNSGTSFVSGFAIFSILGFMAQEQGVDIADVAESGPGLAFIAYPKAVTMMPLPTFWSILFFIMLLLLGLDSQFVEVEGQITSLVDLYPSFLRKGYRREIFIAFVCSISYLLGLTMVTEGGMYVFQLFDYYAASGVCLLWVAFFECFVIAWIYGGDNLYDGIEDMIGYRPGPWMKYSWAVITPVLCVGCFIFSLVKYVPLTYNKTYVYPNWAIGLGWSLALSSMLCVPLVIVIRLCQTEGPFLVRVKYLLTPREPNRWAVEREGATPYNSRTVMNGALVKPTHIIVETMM

T2: SLC6A6 extracellular region partial protein (E. coli recombinant, amino acid residues 143 to 216, C-terminal … (human, UniProt P31641 143-216))
T2 construct: also called partial protein of the extracellular region of SLC6A6; SLC6A6 partial protein for screening
T2 sequence: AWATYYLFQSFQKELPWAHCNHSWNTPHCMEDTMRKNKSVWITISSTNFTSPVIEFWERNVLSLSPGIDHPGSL

B1: monoclonal antibody produced by mouse-mouse hybridoma 419 (antibody, V domains shown)
VH: IQLQQSGPELVKPGASVKVSCKAFGYAFTRHNMYWVKQRHGKCLEWIGYIDPFNGGTSYNQKFKGKATLTVDKSSSTAYMHLNSLTSEDSAVYYCARVYGNYAWFAYWGQGTLVTVSA
VL: DIVMTQSHKFMSTSVGDRVSITCKASQDVSTAVAWYQQIPGQSPKLLIYSSSYRYTGVPDRFTGSGSGTDFTFTISSVQAEDLAVYYCQQHYNTPWTFGGGTKLEIK
notes: Mouse IgG from the hybridoma
B2: monoclonal antibody produced by mouse-mouse hybridoma 303 (antibody, V domains shown)
VH: VQLQQPGAEFVKPGTSVKLSCKASGYNFTRYWINWVKLRPGQGLEWIGNIYPATNGINYNEKFKSKATLTVDTFSSTAYMQLSSLASEDSGLYYCARCKTMLSRCAWFPYWGQGTLVTVSA
VL: DIQMTQTTSSLSASLGDRVTINCRASQDISNYLNWYQQKPDGTVKLLIYDTSRLHSRVPSRFSGSGSGTDYSLTISNLEQEDIATYFCQQGNMLPWTFGGGTKLEIK
notes: Mouse IgG from the hybridoma
B3: monoclonal antibody produced by mouse-mouse hybridoma 402 (antibody, V domains shown)
VH: VKLQQSGPELVKPGASVKVSCTASGYAFTQYNLYWVKLRHGKCPKWIGSIDPYIGGTTYNQQFKDKVTLTVDKSSSTAYLHLNSLTSEDSAIYYCARWWDGYFDVWGAGTTVTVSS
VL: QIVLTQSPAIMSASLGERVTLTCTASSSVISRYLHWYQVKPGSSPKLWIYSTSNLASGVPTRFSGSGSGTSYSLTISNMEAEDAATYYCHQYHRSPLTFGAGTKLELT
notes: Mouse IgG from the hybridoma
B4: monoclonal antibody produced by mouse-mouse hybridoma 422 (antibody, V domains shown)
VH: VQLQQSGPEVVKPGPSLRMSCKASGYFFTGNSMNWVKKTHGRSLEWIGLIDLSNGETRFNQKFKGKATLTVDKSSGTAYMELLNLTSEDSAVYYCASRSAMIMPCFSHWGQGTLVTVSA
VL: DIVMTQSHNFMSTSIGDRVNITCKASQDVATAVAWFQQKPGQSPKLLIYWTSTRHTGVPDRFTGSGYGTDFTLTISHVQSEDLADYFCQQYDTYPYTFGGGTKLEIK
notes: Mouse IgG from the hybridoma; also called antibody clone 422
B5: monoclonal antibody produced by mouse-mouse hybridoma 430 (antibody, V domains shown)
VH: B3 VH with V1I, K2Q, L10V, A15T, K18R, T57A, T58N
VL: B3 VL with L21M, I30S, S31F, T61S, F63I, S73F
notes: Mouse IgG from the hybridoma; also called antibody clone 430; 430 antibody
B6: monoclonal antibody produced by mouse-mouse hybridoma 205 (antibody, V domains shown)
VH: VKLQQSGPELVKPGASVKMSCKASGYTFTSYVMHWVKQKPGQGLEWIGYINPYNDGTKYNEKFKGKATLTSDKSSSTAYMELSSLTSEDSAVYYCARRKAWFAYWGQGTLVTVSA
VL: DIQMTQSPASQSASLGESVTITCLASQTIGTWLAWYQQKPGKSPQLLIYAATSLADGVPSRFSGSGSGTKFSFKISSLQAEDFVSYYCQQLYSTPLTFGGGTKLEIK
notes: Mouse IgG from the hybridoma
B7: antibody clone 402 human-mouse chimeric antibody (antibody, human IgG1, kappa, V domains shown)
VH: QVKLQQSGPELVKPGASVKVSCTASGYAFTQYNLYWVKLRHGKCPKWIGSIDPYIGGTTYNQQFKDKVTLTVDKSSSTAYLHLNSLTSEDSAIYYCARWWDGYFDVWGAGTTVTVSS
VL: QIVLTQSPAIMSASLGERVTLTCTASSSVISRYLHWYQVKPGSSPKLWIYSTSNLASGVPTRFSGSGSGTSYSLTISNMEAEDAATYYCHQYHRSPLTFGAGTKLELTR
notes: Human IgG1 heavy chain constant region and human kappa constant region, expressed in Expi293F cells; also called c402 mAb

What was measured:
[1] = target: T1, SLC6A6 (solute carrier family 6 …); assay: flow cytometry on 293T cells (express SLC6A6), antibody 10 ug/mL
[2] = target: T1, SLC6A6 (solute carrier family 6 …); assay: flow cytometry on HCT116 cells
[3] = target: T2, SLC6A6 extracellular region partial …; assay: competition inhibition test; 402 at 10 ug/mL pre-incubated with recombinant SLC6A6 extracellular region partial protein at 15 ug/mL, read out by immunofluorescence on HCT116 cells
[4] = target: T1, SLC6A6 (solute carrier family 6 …); assay: immunohistochemistry on breast cancer and uterine cancer tissue sections
[5] = target: T1, SLC6A6 (solute carrier family 6 …); assay: flow cytometry on HCT116 cells, antibody 10 ug/mL

Row | binding result [2] | further results | Binder
1 | – | binding result [1]: binds | B1
2 | binds | – | B2
3 | binds | binding result [3]: binds | B3
4 | binds | – | B4
5 | binds | – | B5
6 | – | binding result [4]: binds | B6
7 | – | binding result [5]: binds | B7
